Test results published in article PMC8606531, “The Impact of Rare Human Variants on Barrier-To-Auto-Integration Factor 1 (Banf1) Structure and Function”.

Target: T1, Banf1 WT (Homo sapiens, UniProt O75531 1-89)
T1 sequence: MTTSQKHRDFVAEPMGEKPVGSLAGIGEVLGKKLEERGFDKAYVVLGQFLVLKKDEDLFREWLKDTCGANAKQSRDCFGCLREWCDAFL
Experiment: EMSA; EC50; 10 mM KH2PO4, 100 mM NaCl, 0.01% IGEPAL, 5 nM Cy5 DNA, 30 min at 37 C; pH not stated; 8% gel in 1x TBE at 4 C
Details: protein: recombinant; tags: N-terminal His6 (pET-28a NdeI-XhoI); chain copies: 2; label: 5' Cy5 on forward strand; blunt

B1: Cy5 40 bp dsDNA (dsDNA)
DNA 1: AGGAGCGCCAGACCCACCAAGAGCCCTCTATCGGTTGGGA
DNA 2: TCCCAACCGATAGAGGGCTCTTGGTGGGTCTGGCGCTCCT
apparent K (half saturation): 15.1 ± 1.96 nM
